Reference: publication PMC6615313

System: T1, SigL (sigma54) (Clostridium beijerinckii NCIMB 8052), ORF:07123114
T1 sequence: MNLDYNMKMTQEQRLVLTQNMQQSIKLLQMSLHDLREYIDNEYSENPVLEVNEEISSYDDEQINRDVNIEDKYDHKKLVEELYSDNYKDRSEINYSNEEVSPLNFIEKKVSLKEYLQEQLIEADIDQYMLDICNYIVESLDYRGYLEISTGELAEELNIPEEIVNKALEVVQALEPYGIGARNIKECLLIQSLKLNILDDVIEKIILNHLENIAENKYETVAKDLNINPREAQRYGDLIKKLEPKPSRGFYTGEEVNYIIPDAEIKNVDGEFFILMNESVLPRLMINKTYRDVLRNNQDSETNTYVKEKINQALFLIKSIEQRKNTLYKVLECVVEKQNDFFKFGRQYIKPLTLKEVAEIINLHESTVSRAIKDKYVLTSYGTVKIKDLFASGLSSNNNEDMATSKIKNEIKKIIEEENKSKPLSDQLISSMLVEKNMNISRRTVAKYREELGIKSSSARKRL
Test: EMSA
Settings: not stated; EMSA as described previously (ref 21), Cy5-labeled DNA, SigL up to 1500 nM

In the case of “AGCCAGTGGCGATAAGCCAGAAAAGAGTAAGATTCTCAAAATAGGACACTAAGTATGTGTCATAATGGCACATAGTGATTTTAAATGTCTTTTTAACAGGTTTCTTGTTTTTGGTATGGCTTTTGCTTATAAAATATAGTGAATATATTAACAGGTATATGTAAATTTTAATATTGCCATACTATTATAAAAAAGGAGAGATAATTCTTATCGCCACTGGCT (double strand) [butA promoter]”, the binding is reported as “binds”.
For “AGCCAGTGGCGATAAGGGGGAAAATCTTTAAAAGTGTACAAAAAAAACACATATTTTTCTGATTTATTTTATTTAAAAAGGTAAATAGAATTAATAGTAAACAGTTTAAAAAAATAATATTTAAAGAGTTTAGTAGATTTGGAAAAGGTTTTCGACTTTTGGAAAGAAACTTGGCATCCTAATTGCTCTATAAAAAGGTATGAGGAGGGATTATGACTTATCGCCACTGGCT (double strand) [cotX (cotX-gntT) promoter]”, the binding was “binds”.
“AGCCAGTGGCGATAAGGGTGTACAAAATATAGACATAAATAAAATTGATATATTTAGGAATTGATTACGAAAACCACAATATATAAGGTTTCATGGAAAAAATATGATTGGCATGCTTATTGCTAATAATAAAATTAACGGGAGTAGTAAGTGAACTAATATATATAACTTAATTTTTCCACAATCTTTAGTGCAATGCTATTTGCTATTTAAGGACTTATCGCCACTGGCT (double strand) [crt (crt-bcd-etfAB-moaC) promoter]” was tested, and the binding was “binds”.
